Key:
MS2 coat protein = assay: apparent KD of MS2 coat protein; higher = weaker reporter binding; conditions: Eterna round: R107
Method: (§1)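 RNA-MaP round R107: designed RNA switches with theophylline, tryptophan, arginine or FMN aptamers are transcribed on-chip within common flanks. They are titrated with SNAP-549-labelled MS2 coat protein in RNA-MaP buffer (100 mM Tris pH 7.5, 80 mM KCl, 4 mM MgCl2), without ligand or with the indicated ligand. Median apparent KD per design.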

[1] = system: K4 kissing-loop RNA reporter; assay: apparent KD of K4 kissing-loop reporter; higher = weaker reporter binding; conditions: Eterna round: R107;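 further: bound reporter read as fluorescence of individual clusters on recovered sequencing chips by microscopy, with normalized cluster intensities fitted with a binding model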
Method: as §1, with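 “a labelled K4 kissing-loop RNA reporter” for “SNAP-549-labelled MS2 coat protein”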

[2] = input ligand: theophylline 20 uM
[3] = input ligand: theophylline 2 mM
[4] = input ligand: tryptophan 2.4 mM

Sequence: AAAAUCCUACCUGAGGAUCACCCAGGUGAAGGAGCGCCCGAAAGGGCAGGUAGGUCGCACCUGAGGAUCACCCUGGUAAACCUAA [ArgEX 22 #DoubleMS2 #OpenEnded]
- apparent KD of MS2 coat protein (MS2 coat protein; input ligand: arginine 13.2 mM): 30.9 nM
- apparent KD of MS2 coat protein (MS2 coat protein; input ligand: none): 44 nM
- apparent KD of MS2 coat protein (MS2 coat protein; [2]): 47.6 nM
- apparent KD of MS2 coat protein (MS2 coat protein; [3]): 56.8 nM
- apparent KD of MS2 coat protein (MS2 coat protein; [4]): 40.6 nM

Sequence: CCAUAAGUACCGGUCCUCAGAUCCUCAUGACGAGGACCGGUACGGCCGCCACUCGAAACAUGAGGAUCACCCAUGUAAUAAUAUU [Brourdmod14]
- apparent KD of MS2 coat protein (MS2 coat protein; input ligand: arginine 13.2 mM): 19.3 nM
- apparent KD of MS2 coat protein (MS2 coat protein; [2]): 45.4 nM
- apparent KD of MS2 coat protein (MS2 coat protein; [3]): 31.1 nM

Sequence: AAAUAAAUACAUGAGGAUCACCCAUGUGAAGGAGCGCGCGUUAGCGCAGGUAGGUCGCACAUGAAUAACUCCGCGCGAAAGCGCA [MAT - Exclusion Arginine A - Mod of Eli - D11]
- apparent KD of MS2 coat protein (MS2 coat protein; input ligand: arginine 13.2 mM): 11.8 nM
- apparent KD of MS2 coat protein (MS2 coat protein; input ligand: none): 17.4 nM
- apparent KD of MS2 coat protein (MS2 coat protein; [2]): 23.7 nM
- apparent KD of MS2 coat protein (MS2 coat protein; [3]): 19.6 nM
- apparent KD of MS2 coat protein (MS2 coat protein; [4]): 16.4 nM

Sequence: ACAUGAGGAUCACCCAUGUGAGAUAGGGAAGGAGCGCAGGAGGAUGCAGGUAGGUCGCCCACAUGAGGAUCACCCGUGUCUGGAG [#11 Exclusion - Arginine A]
- apparent KD of MS2 coat protein (MS2 coat protein; input ligand: arginine 13.2 mM): 33.2 nM
- apparent KD of MS2 coat protein (MS2 coat protein; input ligand: none): 43.4 nM
- apparent KD of MS2 coat protein (MS2 coat protein; [2]): 33 nM
- apparent KD of MS2 coat protein (MS2 coat protein; [3]): 62.4 nM
- apparent KD of MS2 coat protein (MS2 coat protein; [4]): 33.1 nM

Sequence: AGGCUUCGCAUAGGAAAACUAUGUGAAGCCCGAGGACCGGUACGGCCGCCACUCGUCCUCAACAUGAGGAUCACCCAUGUAAUAA [Mat - Exclusion - Trytophan A - D1]
- apparent KD of MS2 coat protein (MS2 coat protein; input ligand: arginine 13.2 mM): 24.5 nM
- apparent KD of MS2 coat protein (MS2 coat protein; input ligand: none): 15.4 nM
- apparent KD of MS2 coat protein (MS2 coat protein; [2]): 41.6 nM
- apparent KD of MS2 coat protein (MS2 coat protein; [3]): 24.6 nM
- apparent KD of MS2 coat protein (MS2 coat protein; [4]): 28.8 nM

Sequence: UGUAUGUGAUUUGAUACCAGACCAACUGGUAAUACAUGAGGAUCACCCAUGUAGAUUUGGGUCCCUUGGCAGCAAAUCGCAUACU [SSTheo B #23]
- apparent KD of MS2 coat protein (MS2 coat protein; input ligand: arginine 13.2 mM): 45.6 nM
- apparent KD of MS2 coat protein (MS2 coat protein; [2]): 34.1 nM
- apparent KD of MS2 coat protein (MS2 coat protein; [4]): 46.1 nM

Sequence: GGCGCGAGCCAACAUGAGGAUCACCCAUGUCGAGGACCGGUACGGCCGCCACUCGAACGAGUGGCGCGCGCGCGCGCGCGCGCGC [Vaa]
- apparent KD of MS2 coat protein (MS2 coat protein; input ligand: arginine 13.2 mM): 12.2 nM
- apparent KD of MS2 coat protein (MS2 coat protein; input ligand: none): 15.9 nM
- apparent KD of MS2 coat protein (MS2 coat protein; [2]): 17.9 nM
- apparent KD of MS2 coat protein (MS2 coat protein; [3]): 19 nM
- apparent KD of MS2 coat protein (MS2 coat protein; [4]): 28.6 nM

Sequence: ACAUGAGGAUCACCCAUGUUUGAUGUUCCUCGAGGACCGGUACGGCCGCCACUCGAACGAGUGGCGCGCGAGCGCGCGCUCGCGC [aRa]
- apparent KD of MS2 coat protein (MS2 coat protein; input ligand: arginine 13.2 mM): 11.4 nM
- apparent KD of MS2 coat protein (MS2 coat protein; [2]): 20.3 nM
- apparent KD of MS2 coat protein (MS2 coat protein; [3]): 14.8 nM

Sequence: GAAAGAAAGUAUGAUACCAGACACCCGAGUGAUGUUCGGAGCAGUGUGUUGUUCUUUUAAGUCCCUUGGCAGCAUAAAAGAAAAG [whbob_SS_Theo_B_sa85]
- apparent KD of K4 kissing-loop reporter ([1]; input ligand: FMN 200 uM): 116 nM
- apparent KD of K4 kissing-loop reporter ([1]; input ligand: arginine 13.2 mM): 107 nM
- apparent KD of K4 kissing-loop reporter ([1]; input ligand: none): 127 nM
- apparent KD of K4 kissing-loop reporter [1, 2]: 114 nM
- apparent KD of K4 kissing-loop reporter [1, 4]: 87.1 nM

Sequence: UAUAUAGUGACGGCCGCCACUAUAUUAAUGUUUUUGUUAGAGUGAUGUUUUGUUUUUUAAUUUUAUAGGACCGGGUUAUAUGUUA [xnxmullin]
- apparent KD of K4 kissing-loop reporter ([1]; input ligand: FMN 200 uM): 275 nM
- apparent KD of K4 kissing-loop reporter ([1]; input ligand: arginine 13.2 mM): 155 nM
- apparent KD of K4 kissing-loop reporter ([1]; input ligand: none): 253 nM
- apparent KD of K4 kissing-loop reporter [1, 2]: 335 nM
- apparent KD of K4 kissing-loop reporter [1, 4]: 188 nM

Sequence: GCGCGUCAUGUCAGCGGUGACACUGUCGAUACCAGUGCCGCAAGGCGCCCUUGGCAGCGACGUGCUGGAGUGAUGUUCCAGCGUU [#2 Exclusion - Theophylline A Attempt #29 (HarryS)]
- apparent KD of K4 kissing-loop reporter ([1]; input ligand: FMN 200 uM): 156 nM
- apparent KD of K4 kissing-loop reporter ([1]; input ligand: arginine 13.2 mM): 122 nM
- apparent KD of K4 kissing-loop reporter ([1]; input ligand: none): 161 nM
- apparent KD of K4 kissing-loop reporter [1, 2]: 152 nM
- apparent KD of K4 kissing-loop reporter [1, 4]: 124 nM

Sequence: UUAGAGAUCUCAGGAUAUCAGUGAUGUUGGUUUCCAGAUCUGAGAUAGAAUUCUAUCUCAGAUCAAUGAGAAGGGAGAUCUCAUU [AK4.1 Exc FMN B]
- apparent KD of K4 kissing-loop reporter ([1]; input ligand: FMN 200 uM): 535 nM
- apparent KD of K4 kissing-loop reporter ([1]; input ligand: arginine 13.2 mM): 128 nM
- apparent KD of K4 kissing-loop reporter ([1]; input ligand: none): 151 nM
- apparent KD of K4 kissing-loop reporter [1, 2]: 132 nM
- apparent KD of K4 kissing-loop reporter [1, 4]: 123 nM

Sequence: AGUGUGCAAAAGCACACUCAGAACAAGGACAAGGAUAUCUACUAAUAGAGAAGGUGUCCUUUCCUUAGUGAUGUUAAGGAACUGA [Omei KL FMN A SS D v5]
- apparent KD of K4 kissing-loop reporter ([1]; input ligand: FMN 200 uM): 278 nM
- apparent KD of K4 kissing-loop reporter ([1]; input ligand: arginine 13.2 mM): 524 nM
- apparent KD of K4 kissing-loop reporter ([1]; input ligand: none): 640 nM
- apparent KD of K4 kissing-loop reporter [1, 2]: 680 nM
- apparent KD of K4 kissing-loop reporter [1, 4]: 615 nM

Sequence: CCUCUCCUUGAUAGUGAUGUUAUCAAGGACAAGGAUAUCAUCUCAAUGAGAAGGUGUCCUUGAUAACAUGGAGGUCUGAAACAGA [Omei KL FMN A Exc C v1]
- apparent KD of K4 kissing-loop reporter ([1]; input ligand: FMN 200 uM): 138 nM
- apparent KD of K4 kissing-loop reporter ([1]; input ligand: arginine 13.2 mM): 126 nM
- apparent KD of K4 kissing-loop reporter ([1]; input ligand: none): 136 nM
- apparent KD of K4 kissing-loop reporter [1, 2]: 125 nM
- apparent KD of K4 kissing-loop reporter [1, 4]: 122 nM

Sequence: GGCACGGUGGCGCGACUGCCGUGCGCUUGGGAGGAUAUGUUUCGUGACAGAAGGCCCAGUGAUGUUGGGUCUGUUCAAAAGGACU [Gegearer]
- apparent KD of K4 kissing-loop reporter ([1]; input ligand: FMN 200 uM): 359 nM
- apparent KD of K4 kissing-loop reporter ([1]; input ligand: arginine 13.2 mM): 125 nM
- apparent KD of K4 kissing-loop reporter ([1]; input ligand: none): 127 nM
- apparent KD of K4 kissing-loop reporter [1, 2]: 130 nM
- apparent KD of K4 kissing-loop reporter [1, 4]: 112 nM

Sequence: AGAUGGCAGUGAUGUUGCUGUUGGAGGGAUAAGGAUAUUGGCUAAACAAGAAGGUAUCGGCGGCAUUGAGGAAUGGGAGGCGCCU [theeternabot_exclusion_KL_FMN_A_7]
- apparent KD of K4 kissing-loop reporter ([1]; input ligand: FMN 200 uM): 530 nM
- apparent KD of K4 kissing-loop reporter ([1]; input ligand: arginine 13.2 mM): 329 nM
- apparent KD of K4 kissing-loop reporter ([1]; input ligand: none): 510 nM
- apparent KD of K4 kissing-loop reporter [1, 2]: 449 nM
- apparent KD of K4 kissing-loop reporter [1, 4]: 405 nM

Sequence: GGAUAGGAAAGAGGAUAUGGGCUAGGCAAGAAUAACUUGUCUAGCAAAUCCAUGAGGAGUGAUGUUCCAGAAGGCUUUCCUAUCG [FmnBX 1 A9+U77]
- apparent KD of K4 kissing-loop reporter ([1]; input ligand: FMN 200 uM): 995 nM
- apparent KD of K4 kissing-loop reporter ([1]; input ligand: arginine 13.2 mM): 141 nM
- apparent KD of K4 kissing-loop reporter ([1]; input ligand: none): 160 nM
- apparent KD of K4 kissing-loop reporter [1, 2]: 157 nM
- apparent KD of K4 kissing-loop reporter [1, 4]: 126 nM

Sequence: GCAAAGUGUCAUAUUAUCUAGCAGCUGCGAAAGGAUAUGAGAGUGCUCAGAAGGUUCUUGGCGGAGUGAUGUUCCGCGUAAAUGG [theeternabot_exclusion_KL_FMN_A_22]
- apparent KD of K4 kissing-loop reporter ([1]; input ligand: FMN 200 uM): 84.2 nM
- apparent KD of K4 kissing-loop reporter ([1]; input ligand: arginine 13.2 mM): 93.8 nM
- apparent KD of K4 kissing-loop reporter ([1]; input ligand: none): 93.9 nM
- apparent KD of K4 kissing-loop reporter [1, 2]: 103 nM
- apparent KD of K4 kissing-loop reporter [1, 4]: 81.4 nM

Sequence: UCCGGUCGGUGAGCCAGUGAUGUUGGUCAGAAGGAUAUCUGGCAACAGAGAAGGUCUGCAUCAGCCUAGAUAUCCUGGCGACCGG
- apparent KD of K4 kissing-loop reporter ([1]; input ligand: FMN 200 uM): 145 nM
- apparent KD of K4 kissing-loop reporter ([1]; input ligand: arginine 13.2 mM): 91.4 nM
- apparent KD of K4 kissing-loop reporter ([1]; input ligand: none): 79 nM
- apparent KD of K4 kissing-loop reporter [1, 2]: 84.2 nM
- apparent KD of K4 kissing-loop reporter [1, 4]: 69.2 nM

Sequence: GUACGCUGCUGAGUGAUGUUCAGCAAUCGCUAGGAUAUCGCUUUUGCGAGAAGGAGCGCAAUGAGGAAACUCGUUGUUAGUGUAC [FMN A 28]
- apparent KD of K4 kissing-loop reporter ([1]; input ligand: FMN 200 uM): 166 nM
- apparent KD of K4 kissing-loop reporter ([1]; input ligand: arginine 13.2 mM): 198 nM
- apparent KD of K4 kissing-loop reporter ([1]; input ligand: none): 255 nM
- apparent KD of K4 kissing-loop reporter [1, 2]: 204 nM
- apparent KD of K4 kissing-loop reporter [1, 4]: 207 nM
